Article PMC11128890 (Frontiers in Cell and Developmental Biology, 2024)

B1: recombinant soluble integrin αvβ3 [not stated] / VEGF165 heparin-binding domain (HBD), wild type [human] (parent complex)
chain 1: FNLDVDSPAEYSGPEGSYFGFAVDFFVPSASSRMFLLVGAPKANTTQPGIVEGGQVLKCDWSSTRRCQPIEFDATGNRDYAKDDPLEFKSHQWFGASVRSKQDKILACAPLYHWRTEMKQEREPVGTCFLQDGTKTVEYAPCRSQDIDADGQGFCQGGFSIDFTKADRVLLGGPGSFYWQGQLISDQVAEIVSKYDPNVYSIKYNNQLATRTAQAIFDDSYLGYSVAVGDFNGDGIDDFVSGVPRAARTLGMVYIYDGKNMSSLYNFTGEQMAAYFGFSVAATDINGDDYADVFIGAPLFMDRGSDGKLQEVGQVSVSLQRASGDFQTTKLNGFEVFARFGSAIAPLGDLDQDGFNDIAIAAPYGGEDKKGIVYIFNGRSTGLNAVPSQILEGQWAARSMPPSFGYSMKGATDIDKNGYPDLIVGAFGVDRAILYRARPVITVNAGLEVYPSILNQDNKTCSLPGTALKVSCFNVRFCLKADGKGVLPRKLNFQVELLLDKLKQKGAIRRALFLYSRSPSHSKNMTISRGGLMQCEELIAYLRDESEFRDKLTPITIFMEYRLDYRTAADTTGLQPILNQFTPANISRQAHILLDCGEDNVCKPKLEVSVDSDQKKIYIGDDNPLTLIVKAQNQGEGAYEAELIVSIPLQADFIGVVRNNEALARLSCAFKTENQTRQVVCDLGNPMKAGTQLLAGLRFSVHQQSEMDTSVKFDLQIQSSNLFDKVSPVVSHKVDLAVLAAVEIRGVSSPDHVFLPIPNWEHKENPETEEDVGPVVQHIYELRNNGPSSFSKAMLHLQWPYKYNNNTLLYILHYDIDGPMNCTSDMEINPLRIKISSLQTTEKNDTVAGQGERDHLITKRDLALSEGDIHTLGCGVAQCLKIVCQVGRLDRGKSAILYVKSLLWTETFMNKENQNHSYSLKSSASFNVIEFPYKNLPIEDITNSTLVTTNVTWGIQP
chain 2: GPNICTTRGVSSCQQCLAVSPMCAWCSDEALPLGSPRCDLKENLLKDNCAPESIEFPVSEARVLEDRPLSDKGSGDSSQVTQVSPQRIALRLRPDDSKNFSIQVRQVEDYPVDIYYLMDLSYSMKDDLWSIQNLGTKLATQMRKLTSNLRIGFGAFVDKPVSPYMYISPPEALENPCYDMKTTCLPMFGYKHVLTLTDQVTRFNEEVKKQSVSRNRDAPEGGFDAIMQATVCDEKIGWRNDASHLLVFTTDAKTHIALDGRLAGIVQPNDGQCHVGSDNHYSASTTMDYPSLGLMTEKLSQKNINLIFAVTENVVNLYQNYSELIPGTTVGVLSMDSSNVLQLIVDAYGKIRSKVELEVRDLPEELSLSFNATCLNNEVIPGLKSCMGLKIGDTVSFSIEAKVRGCPQEKEKSFTIKPVGFKDSLIVQVTFDCDCACQAQAEPNSHRCNNGNGTFECGVCRCGPGWLGSQCECSEEDYRPSQQDECSPREGQPVCSQRGECLCGQCVCHSSDFGKITGKYCECDDFSCVRYKGEMCSGHGQCSCGDCLCDSDWTGYYCNCTTRTDTCMSSNGLLCSGRGKCECGSCVCIQPGSYGDTCEKCPTCPDACTFKKECVECKKFDRGALHDENTCNRYCRDEIESVKELKDTGKDAVNCTYKNEDDCVVRFQYYEDSSGKSILYVVEEPECPKGPD
chain 3: PCGPCSERRKHLFVQDPQTCKCSCKNTDSRCKARQLELNERTCRCDKPRR

Variants of: B1
Assay: ELISA-type binding assay; HBD coated at 2.5 µg/ml; n=3; read off a plot

| response | Variant |
| --- | --- |
| ~0.25 OD450 | chain 3 PCGPCSEAAAHLFVQDPQTCKCSCKNTDSRCKARQLELNERTCRCDKPRR |
| ~0.02 OD450 | chain 3 PCGPCSEAAAHLFVQDPQTCKCSCANTDSACKAAQLELNERTCRCDKPRR |
| ~0.3 OD450 | chain 3 PCGPCSERRKHLFVQDPQTCKCSCANTDSACKAAQLELNERTCRCDKPRR |

Variants of: B1
Assay: ELISA-type binding assay; HBD coated at 5 µg/ml (highest point of the curve); read off a plot

| response | Variant |
| --- | --- |
| ~0.78 OD450 | chain 3 PCGPCSEAAAHLFVQDPQTCKCSCKNTDSRCKARQLELNERTCRCDKPRR |
| ~0.11 OD450 | chain 3 PCGPCSEAAAHLFVQDPQTCKCSCANTDSACKAAQLELNERTCRCDKPRR |
| ~1.1 OD450 | chain 3 PCGPCSERRKHLFVQDPQTCKCSCANTDSACKAAQLELNERTCRCDKPRR |
